Drawing on the RNAGym collection of RNA variant scans (doi:10.7554/elife.80360), this text covers self-cleavage for 57 variants.

First the molecules themselves.
B1: Hammerhead Ribozyme (parent)
chain: ACCGGAUGUGCUUUCCGGUCUGAUGAGUCCGUGAGGACGAAACAG

In this data set the parent is B1. Description: self-cleavage, relative activity (ratio to wild type); higher = more cleavage; co-transcriptional.
Consider ACCGGAUGUGCUUUCCGGUCUGAUGUGUCCGUGAGGACGAAAGAG [A26U C43G], for which the self-cleavage was 0.415.

Consider ACCGGAUGUGCUUUCCGGUCUGAUGUGUCCGUGAGGACGAAAAAG [A26U C43A], for which the self-cleavage worked out at 0.33.

With ACCGGAUGUGCUUUCCGGUCUGAUGUGUCCGUGAGGACGAAAUAG [A26U C43U], the self-cleavage was 0.382.

Regarding ACCGGAUGUGCUUUCCGGUCUGAUGAAUCCCUGAGGACGAAACAG [G27A G31C], the self-cleavage was determined as 0.864.

Turning to ACCGGAUGUGCUUUCCGGUCUGAUGAAUCCUUGAGGACGAAACAG [G27A G31U], the self-cleavage came out at 0.923.

Consider ACCGGAUGUGCUUUCCGGUCUGAUGAAUCCAUGAGGACGAAACAG [G27A G31A], for which the self-cleavage came out at 0.61.

Turning to ACCGGAUGUGCUUUCCGGUCUGAUGAAUCCGUGAGGACGACACAG [G27A A41C], the self-cleavage was found to be 0.339.

For the variant ACCGGAUGUGCUUUCCGGUCUGAUGAAUCCGUGAGGACGAGACAG [G27A A41G], the self-cleavage amounted to 0.361.

In the case of ACCGGAUGUGCUUUCCGGUCUGAUGAAUCCGUGAGGACGAUACAG [G27A A41U], the self-cleavage is 0.319.

Consider ACCGGAUGUGCUUUCCGGUCUGAUGAAGCCGUGAGGACGAAACAG [G27A U28G], for which the self-cleavage came out at 0.695.

For the variant ACCGGAUGUGCUUUCCGGUCUGAUGAAACCGUGAGGACGAAACAG [G27A U28A], the self-cleavage came out at 0.643.

As for ACCGGAUGUGCUUUCCGGUCUGAUGAACCCGUGAGGACGAAACAG [G27A U28C], the self-cleavage came out at 0.645.

For ACCGGAUGUGCUUUCCGGUCUGAUGAAUCCGUGAGGACGAAACAG [G27A], the self-cleavage amounted to 0.897.

For ACCGGAUGUGCUUUCCGGUCUGAUGUGUCCGUGAGGACGAAACCG [A26U A44C], the self-cleavage was 0.477.

For ACCGGAUGUGCUUUCCGGUCUGAUGUGUCCGUGAGGACGAAACUG [A26U A44U], the self-cleavage was 0.443.

Consider ACCGGAUGUGCUUUCCGGUCUGAUGUGUCCGUGAGGACGAAACGG [A26U A44G], for which the self-cleavage came out at 1.04.

Regarding ACCGGAUGUGCUUUCCGGUCUGAUGUGUCCGGGAGGACGAAACAG [A26U U32G], the self-cleavage is 0.466.

Take ACCGGAUGUGCUUUCCGGUCUGAUGUGUCCGAGAGGACGAAACAG [A26U U32A]: the self-cleavage stood at 0.846.

As to ACCGGAUGUGCUUUCCGGUCUGAUGUGUCCGCGAGGACGAAACAG [A26U U32C], the self-cleavage was found to be 0.819.

As to ACCGGAUGUGCUUUCCGGUCUGAUGAAUCCGUGAGUACGAAACAG [G27A G36U], the self-cleavage came to 0.391.

As for ACCGGAUGUGCUUUCCGGUCUGAUGAAUCCGUGAGAACGAAACAG [G27A G36A], the self-cleavage stood at 0.401.

With ACCGGAUGUGCUUUCCGGUCUGAUGAAUCCGUGAGCACGAAACAG [G27A G36C], the self-cleavage worked out at 0.316.

Take ACCGGAUGUGCUUUCCGGUCUGAUGAAUCCGUGAGGACGCAACAG [G27A A40C]: the self-cleavage was 0.428.

On to ACCGGAUGUGCUUUCCGGUCUGAUGAAUCCGUGAGGACGGAACAG [G27A A40G], for which the self-cleavage came to 0.341.

On to ACCGGAUGUGCUUUCCGGUCUGAUGAAUCCGUGAGGACGUAACAG [G27A A40U], for which the self-cleavage was found to be 0.304.

Regarding ACCGGAUGUGCUUUCCGGUCUGAUGUGUCCGUGAGGACGAAACAG [A26U], the self-cleavage turned out to be 0.848.

For ACCGGAUGUGCUUUCCGGUCUGAUGAAUCCGUGUGGACGAAACAG [G27A A34U], the self-cleavage was 0.574.

As to ACCGGAUGUGCUUUCCGGUCUGAUGAAUCCGUGGGGACGAAACAG [G27A A34G], the self-cleavage turned out to be 0.513.

Regarding ACCGGAUGUGCUUUCCGGUCUGAUGAAUCCGUGCGGACGAAACAG [G27A A34C], the self-cleavage stood at 0.431.

Turning to ACCGGAUGUGCUUUCCGGUCUGAUGAAUCCGUGAGGACGAAACUG [G27A A44U], the self-cleavage amounted to 0.53.

As to ACCGGAUGUGCUUUCCGGUCUGAUGAAUCCGUGAGGACGAAACGG [G27A A44G], the self-cleavage was determined as 1.07.

Consider ACCGGAUGUGCUUUCCGGUCUGAUGAAUCCGUGAGGACGAAACCG [G27A A44C], for which the self-cleavage came out at 0.373.

For ACCGGAUGUGCUUUCCGGUCUGAUGUGUCCGUGAGGACGGAACAG [A26U A40G], the self-cleavage worked out at 0.344.

For ACCGGAUGUGCUUUCCGGUCUGAUGUGUCCGUGAGGACGCAACAG [A26U A40C], the self-cleavage amounted to 0.331.

For the variant ACCGGAUGUGCUUUCCGGUCUGAUGUGUCCGUGAGGACGUAACAG [A26U A40U], the self-cleavage turned out to be 0.341.

On to ACCGGAUGUGCUUUCCGGUCUGAUGUGUCCCUGAGGACGAAACAG [A26U G31C], for which the self-cleavage came out at 0.633.

With ACCGGAUGUGCUUUCCGGUCUGAUGUGUCCUUGAGGACGAAACAG [A26U G31U], the self-cleavage is 0.748.

Turning to ACCGGAUGUGCUUUCCGGUCUGAUGUGUCCAUGAGGACGAAACAG [A26U G31A], the self-cleavage is 0.738.

Turning to ACCGGAUGUGCUUUCCGGUCUGAUGUGGCCGUGAGGACGAAACAG [A26U U28G], the self-cleavage came to 0.437.

In the case of ACCGGAUGUGCUUUCCGGUCUGAUGUGCCCGUGAGGACGAAACAG [A26U U28C], the self-cleavage is 0.646.

In the case of ACCGGAUGUGCUUUCCGGUCUGAUGUGACCGUGAGGACGAAACAG [A26U U28A], the self-cleavage came out at 0.464.

On to ACCGGAUGUGCUUUCCGGUCUGAUGAAUCCGUCAGGACGAAACAG [G27A G33C], for which the self-cleavage worked out at 0.675.

On to ACCGGAUGUGCUUUCCGGUCUGAUGAAUCCGUUAGGACGAAACAG [G27A G33U], for which the self-cleavage came out at 0.976.

For ACCGGAUGUGCUUUCCGGUCUGAUGAAUCCGUAAGGACGAAACAG [G27A G33A], the self-cleavage is 1.1.

On to ACCGGAUGUGCUUUCCGGUCUGAUGUGUCCGUGAGGGCGAAACAG [A26U A37G], for which the self-cleavage was 0.736.

Consider ACCGGAUGUGCUUUCCGGUCUGAUGUGUCCGUGAGGCCGAAACAG [A26U A37C], for which the self-cleavage is 0.509.

Regarding ACCGGAUGUGCUUUCCGGUCUGAUGUGUCCGUGAGGUCGAAACAG [A26U A37U], the self-cleavage came to 0.545.

As to ACCGGAUGUGCUUUCCGGUCUGAUGUGUCGGUGAGGACGAAACAG [A26U C30G], the self-cleavage stood at 0.423.

For ACCGGAUGUGCUUUCCGGUCUGAUGUGUCAGUGAGGACGAAACAG [A26U C30A], the self-cleavage was 0.507.

With ACCGGAUGUGCUUUCCGGUCUGAUGUGUCUGUGAGGACGAAACAG [A26U C30U], the self-cleavage amounted to 0.703.

As for ACCGGAUGUGCUUUCCGGUCUGAUGUGUCCGUGAGGACGAAGCAG [A26U A42G], the self-cleavage came out at 0.303.

ACCGGAUGUGCUUUCCGGUCUGAUGUGUCCGUGAGGACGAACCAG [A26U A42C]: the self-cleavage amounted to 0.293.

ACCGGAUGUGCUUUCCGGUCUGAUGUGUCCGUGAGGACGAAUCAG [A26U A42U]: the self-cleavage came to 0.261.

On to ACCGGAUGUGCUUUCCGGUCUGAUGAAUCCGUGAGGCCGAAACAG [G27A A37C], for which the self-cleavage was determined as 0.743.

For the variant ACCGGAUGUGCUUUCCGGUCUGAUGAAUCCGUGAGGGCGAAACAG [G27A A37G], the self-cleavage was found to be 0.691.

With ACCGGAUGUGCUUUCCGGUCUGAUGAAUCCGUGAGGUCGAAACAG [G27A A37U], the self-cleavage came to 0.522.

For ACCGGAUGUGCUUUCCGGUCUGAUGUGUCCGUGAGGACCAAACAG [A26U G39C], the self-cleavage is 0.378.
